Test: soluble on expression in E. coli; label from the status in PepcDB or PDB records

Sequence	soluble on expression in E. coli
MAHHHHHHMSEARQIQSMIDFIEREAQEKAEELEAAAQEEYDVEKMRLVEAEKAKIRAMAEKKLKQVDVDRRVARANYSKVQRMRVMEERARTMEKLHEQTRQKIVAMVNNPPQYKPMLVRLIHQSLMSIRTDAVVQCRKEDEAEVVRSIPELERWYKEKTGATISIQTSKTYLDTAEAWGGVVVKSTDGRVVCNNTLSYRTKTCFDEQLPTVRFHLFNPDAPL	soluble
MSELGAKYQQLQNELEEFIVARQKLETQLQENKIVNEEFDQLEEDTPVYKLTGNVLLPVEQSEARTNVDKRLEFIETEITRCEKNIRDKQEELEKMRSELIKLNNTAASTGPGR	soluble
MGSDKIHHHHHHMKKLLLPLIIMLLVLAACGNQGEKNNKAETKSYKMDDGKTVDIPKDPKRIAVVAPTYAGGLKKLGANIVAVNQQVDQSKVLKDKFKGVTKIGDGDVEKVAKEKPDLIIVYSTDKDIKKYQKVAPTVVVDYNKHKYLEQQEMLGKIVGKEDKVKAWKKDWEETTAKDGKEIKKAIGQDATVSLFDEFDKKLYTYGDNWGRGGEVLYQAFGLKMQPEQQKLTAKAGWAEVKQEEIEKYAGDYIVSTSEGKPTPGYESTNMWKNLKATKEGHIVKVDAGTYWYNDPYTLDFMRKDLKEKLIKAAK	not soluble
MKRVRLQEVAQVAGVSLGLASAVLNGRHVRARPETVERIREAAQRLGYVPDRMAQAMRWGRTGIIALVVPNFANPYYSALAVEVQRAAWEADLEVLVYANPTEDLAQVSRAVSARRVDGGIIVVSHYTPEELKAHLPLEIPWVGVGHALEPLPFDRVSFKDKEAAMDAVRYLADKGYRRIAHLAGPAPSPTAKARLEGYLEAVSALGMPALVQEGTFRYGDNQRALQTLLGWRADALLAGNDLMALEALAFLQDRGVPVPQGMAVVGFDGIPMGEWVRPQLTTIVRSPRASAQAALARLLARLEGAGEPPQEVWLDTSLRPGDSA	soluble
MGSSHHHHHHSSGLEVLFQGPHMSYQVLARKWRPQTFADVVGQEHVLTALANGLSLGRIHHAYLFSGTRGVGKTSIARLLAKGLNCETGITATPCGVCDNCREIEQGRFVDLIEIDAASRTKVEDTRDLLDNVQYAPARGRFKVYLIDEVHMLSRHSFNALLKTLEEPPEHVKFLLATTDPQKLPVTILSRCLQFHLKALDVEQIRHQLEHILNEEHIAHEPRALQLLARAAEGSLRDALSLTDQAIASGDGQVSTQAVSAMLGTLDDDQALSLVEAMVEANGERVMALINEAAARGIEWEALLVEMLGLLHRIAMVQLSPAALGNDMAAIELRMRELARTIPPTDIQLYYQTLLIGRKELPYAPDRRMGVEMTLLRALAFHPRMPLPEPEVPRQ	soluble
MSLQKELARNQHLAERLLETEESVRRDVARELHDDIGQTITAIRTQAGIVQRLAADNASVKQSGQLIEQLSLGVYDAVRRLLGRLRPRQLDDLTLEQAIRSLMREMELEGRGIVSHLEWRIEESALSENQRVTLFRVCQEGLNNIVKHADASAVTLQGWLQDERLMLVIEDDGSGLPPGSGQQGFGLTGMRERVTALGGTLTISCLHGTRVSVSLPQRYVEGHHHHHH	soluble
MGNLFCCVLVKQSDVAVKERFGKFQKVLNPGLQFVPWVIGDYVAGTLTLRLQQLDVQCETKTKDNVFVTVVASIQYRVLADKASDAFYRLSNPTTQIKAYVFDVIRACVPKLNLDDVFEQKNEIAKSVEEELDKAMTAYGYEILQTLIIDIEPDQQVKRAMNEINAAARMRVAASEKAEAEKIIQIKRAEGEAESKYLSGLGIARQRQAIVDGLRDSVLGFAGNVPGTSAKDVLDMVMMTQYFDTMRDIGATSKSSAVFIPHGPGAVSDVAAQIRNGLLQANNAS	soluble
LTYLNYYGKEKPELVYTKIAQSSQQDAFNISKRSQKEMDKQKTWAMVLNQDGQIVQSYRLPQQLKRHYTNADMVKFSRWYLDDYPVFSYVRGQQILVFGYPKKYSLAKFNFYLNTQFIK	not soluble
GPGSMSDAFDIDEDMKMRIRVLNEIMYEDELDDGQQDVHLARGDIIDGTSDSDRDDNGGGGQRRRERRRGGGGADVCAPGPPRAETWAAVEGPEAAAASAASSLQQRAPRDEYHDKRYHEKRSKDRLARTKQIQSARNERVPAYANKKKTSKAKAGGSKGSLQRAVKRGKFTADA	soluble
MDNQPYNPLHGLTLKTIVTELEAYFGFETLGKTIKIKCFTDDPSIQSTLKFLRKTPWAREKVEQLYIKNKIKIQNSFESGDLDLEHHHHHH	not soluble
MLLDEKALVTLQKLGLTYYGARVYITLVSLGSSDATELSIESEVPRTKIYNVLKRLEAEKWIAVEHTRPIIYTAKYPKDILKEKRVAFNSEINEVSNQLSEVYDKVIDNEVPKVWLLRGMNNITAKTINMIKRAKRDITLLGALYSENEIEQLKEELSYATKKGLHVRVISRQSIKLNNGELDIIKNLSSVIPQIKIGGPEFSKFVIIDDKELLILFSKVEDNILDIDSTIAIWIPNVSIASYQASIFNGIWNGYCQVDRC	not soluble
QYYDYDFPLSIYGQSSPNCAPECNCPESYPSAMYCDELKLKSVPMVPPGIKYLYLRNNQIDHIDEKAFENVTDLQWLILDHNLLENSKIKGRVFSKLKQLKKLHINHNNLTESVGPLPKSLEDLQLTHNKITKLGSFEGLVNLTFIHLQHNRLKEDAVSAAFKGLKSLEYLDLSFNQIARLPSGLPVSLLTLYLDNNKISNIPDEYFKRFNALQYLRLSHNELADSGIPGNSFNVSSLVELDLSYNKLKNIPTVNENLENYYLEVNQLEKFDIKSFCKILGPLSYSKIKHLRLDGNRISETSLPPDMYECLRVANEVTLN	not soluble
MADTEGTSSSIPTSTNSSRHRASRGRGGRFRQAPRQVGANTADNLDAAPLMNPRGGHRGGSGNKRGRGQKEATSASRLQMQPEANFTFNPNAATFNPAQSVLFDPSVPPPTIGASTHSNQNSRQQEPSQNRRRRGGQQNTQRRQLEIQEQRGDSHPQNQSRQNNRNQLNVDRIANQQNKSVQNPSRNPGNSRRGQGARRREQKEEPLTEEETKILADKPLREGLVYLLENNKYECAICYTRITTRQGVWSCKTCYHIFHISTGCITDWARSSRDKEGANTWRCPTCQTENETMPYNYYCFCGRMRNPNFRVGEVPHSCGETCGGARKFGCPHPCTELCHPGPCIECKLFTTKSCNCGKTKKSVRCGSDQEVMCETVCGKQLSCGQHNCERICHSGDCGECTVILEQDCFCGKTPKEVSCNPCAHEKYSCGSECDGMFSCGIHHCTKKCHDKECGECETGANRIRTCPCGRNTLQSLGVTRKKCTDMVPTCDSVCDKWLTCGTPGKNHHCREKCHEGPCPPCNLNTSVICRCGTSKGVIPCDEYLQIMKTTGEYLCTKRCRKKKSCGMHKCQEVCCIQDEHFCLQMCNKRLSCGIHTCENVCHAGQCRPCLQASFDEQFCHCGHTVRMPPIPCGARLPVCSQPCVRPHSCDHSVSHKCHGEQNCPPCTQLTEKMCYGGHRVRKNIPCHIDSVSCGVVCKKPLKCGVHVCQRTCHGEECEKEGEKCTKKCETIRELCEHPCALPCHEDSPCEPSPCKASVRISCECGRIKKDAPCCEVDKMILSKLEKEEEEKSESDGEEKVVKEGILKRSTSFSQLNCMKCDDECKKLERNRKVAEALEVDTDEYGMNKLAPTISFPCYLKEMVRTNIDFVKSVEKILIDLVIQILSGEAYHDTFRAHLPAMSIEKRRFVHEYANFFNIASESVDSPPKRSIVLTAVRGKSHQPLVLISDLVNYKGALKTPGPAVIRKDIMDQALSKKEETEGLMKPLRCTEKMVVRREARPMKEITAPIPLKQQNQFALLGSDVDSDDEESNVPTTSNLVSSPPKDWWKDEEEGWQKVQQKEYVVEVERDMTEDEIEAAKKLDEGPTWEDQCDEDAPATETSSAIESPAKEEPVAELLE	soluble
MMELHRRVLEGDEAALKTLVSAAPNIGEVARDVVEHLSPGSYREGGPCAVCGGRLESVIASAVEEGYRLLRAYDIERFVVGVRLERGVAMAEEEVKLAAGAGYGESIKAEIRREVGKLLVSRGGVTVDFDSPEATLMVEFPGGGVDIQVNSLLYKARYWKLARNISQAYWPTPEGPRYFSVEQALWPVLKLTGGERLVVHAAGREDVDARMLGSGRPMIVEVKSPRRRRIPLEELEAAANAGGKGLVRFRFETAAKRAEVALYKEETARVRKVYRALVAVEGGVSEVDVEGLRRALEGAVIMQRTPSRVLHRRPDILRRRRLYSLDCSPLEGAPLMECILEAEGGLYIKELVSGDGGRTRPSFAEVLGREAVCIELDVVWVEHEAPAAPGLEHHHHHH	soluble
MLKADYIPYTLKFKEPAGTSRGVLHTKQTYFVRVYDDTFPSRAGYGEAALFRGLSAEEGADYEERLAEVCNGVCGFTPDAWQAYPSLCFGMETALADFEGGGLLFPSAFTSGEAGIPINGLI	not soluble
MSHLDNGFRSLTLQRFPATDDVNPLQAWEAADEYLLQQLDDTEIRGPVLILNDAFGALSCALAEHKPYSIGDSYISELATRENLRLNGIDESSVKFLDSTADYPQQPGVVLIKVPKTLALLEQQLRALRKVVTPDTRIIAGAKARDIHTSTLELFEKVLGPTTTTLAWKKARLINCTFNEPPLADAPQTVSWKLEGTDWTIHNHANVFSRTGLDIGARFFMQHLPENLEGEIVDLGCGNGVIGLTLLDKNPQAKVVFVDESPMAVASSRLNVETNMPEALDRCEFMINNALSGVEPFRFNAVLCNPPFHQQHALTDNVAWEMFHHARRCLKINGELYIVANRHLDYFHKLKKIFGNCTTIATNNKFVVLKAVKLGRRR	soluble
MAHHHHHHMRLILLGAPGAGKGTQANFIKEKFGIPQISTGDMLRAAVKAGTPLGVEAKTYMDEGKLVPDSLIIGLVKERLKEADCANGYLFDGFPRTIAQADAMKEAGVAIDYVLEIDVPFSEIIERMSGRRTHPASGRTYHVKFNPPKVEGKDDVTGEPLVQRDDDKEETVKKRLDVYEAQTKPLITYYGDWARRGAENGLKAPAYRKISGLGAVEEIRARVRRAQVSE	soluble
QDVGQKSIFSITPEFDEVRSISNVGSNGDISSHGNTIYFTRHTLNSPQDIFSIDNHGDDLTQLTHINKDKLGDVKFADYQQFNFKGWNDETVHGYWLKPANFEAGKKYPIAFLVHGGPQGSFGNMFHYRWNAQLWAAQGYGVVMVDFHGSTGYGQEFTHSISRDWGGKPLEDLQKGLDFIVKEQPWLDGDNACALGASYGGYMMNWIAGNWPTRFKCLINHAGLYDMPSFYQSTEELWFPEYDMGGPSWGKENGSAKGKVSPDYTKFNPSAYVNNWQTPMLVIQGELDYRVPYAQSLGAFTTLQRKGIDSRLVMFPDEDHHIRKPDNLVVWYDEVFKWLEKYTK	not soluble
MSLGMRDVAKEAGVSLSTVSLVVNKTGYVSDDMRARVEAAMKELNYVPNELARNLYKNRTNLVGVIVPTIRHPFFATLTAHLQRELAAQGLRTMLCSTADAENGEVEYVDMLRRHMMDGIIVCSHTTHPNDYWTSIHRPIVAFDRVLGGGIASIGSDHEQGGRLMAHMLVNTGAHHVVMIGGPRDQFFDLAARNGDSPDDFDLHKTTFPTVRYYLALEQELKAAGVRYEYVEAGNVEDFQGYKNAVNAVLNSMPVDGVDAVVSSDIGAALCVREAMRRHISIPRDLQIIAYDGTYLTDLAGMKMTAVAQNFDKIAQVAVGNIVRAIAKEGDAKADTTSATGRKPYEPDVLIPVTLKLGDTTREGHHHHHH	soluble
MNLEQLINVLGLLVWIAARAVSRVGPHGSGLVYRELHDFYGYLQLDLLGPVVAGNRSVRTWREQADRARGTFAWRSGLNTSRILPVGSMYRGSDALPAGLYRPEEEVFLLLNRCHGPLSTPKNACLAEVGVANATFLSRFNVGDFHGASWENGTAPDGEPGVCLEHHHHHH	not soluble

— the DeepSol protein solubility set
